One series has as its system biotinyl-Phe-oxazolone. The experiment in a line: self-aminoacylation, catalytic enhancement (BFO) (fold over background); higher = more active; k-Seq, kA / k0A0; sequences stand for … in GGGAAUGGAUCCACAUCUACGAAUUC…UUCACUGCAGACUUGACGAAGCUG
The method, boiled down:
(§1)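 Mutagenized RNA pools with a 21-nt variable region (0.43 μM) reacted with each biotinyl-aminoacyl-oxazolone at 2–1250 μM. Reactions ran in 50 μL HEPES/NaCl/KCl/MgCl2/CaCl2 buffer with 5% acetonitrile, pH 6.9–7.0, for 90 minutes at room temperature. Streptavidin-captured RNA was quantified by triplicate qPCR and Illumina sequencing, and per-sequence fraction reacted was fit to a pseudo-first-order model with 1000 bootstraps. Catalytic enhancement is median kA divided by the uncatalyzed rate, the low-activity peak of a bimodal Gaussian fit.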

The next series concerns biotinyl-Met-oxazolone. The experiment in a line: self-aminoacylation, catalytic enhancement (BMO) (fold over background); higher = more active; k-Seq, kA / k0A0; sequences stand for … in GGGAAUGGAUCCACAUCUACGAAUUC…UUCACUGCAGACUUGACGAAGCUG
The method, boiled down: as §1

The next series relates to biotinyl-Val-oxazolone. Description: self-aminoacylation, catalytic enhancement (BVO) (fold over background); higher = more active; k-Seq, kA / k0A0; sequences stand for … in GGGAAUGGAUCCACAUCUACGAAUUC…UUCACUGCAGACUUGACGAAGCUG
The method, boiled down:
as §1

The subject of the next series is biotinyl-Leu-oxazolone. The experiment in a line: self-aminoacylation, catalytic enhancement (BLO) (fold over background); higher = more active; k-Seq, kA / k0A0; sequences stand for … in GGGAAUGGAUCCACAUCUACGAAUUC…UUCACUGCAGACUUGACGAAGCUG
The method, boiled down:
as §1

Another series relates to biotinyl-Trp-oxazolone. Description: self-aminoacylation, catalytic enhancement (BWO) (fold over background); higher = more active; k-Seq, kA / k0A0; sequences stand for … in GGGAAUGGAUCCACAUCUACGAAUUC…UUCACUGCAGACUUGACGAAGCUG
The method, boiled down: as §1

This sample holds only a part of the variants without activity.

“AAGUUUGCCAAUAGUCGCAGG [Fam3.1 aminoacylation ribozyme variant]”: the self-aminoacylation with biotinyl-Phe-oxazolone is 15.8; in the series with biotinyl-Met-oxazolone, 2.73; with biotinyl-Val-oxazolone it was 2.08; in the series on biotinyl-Leu-oxazolone, 2.33; with biotinyl-Trp-oxazolone, 3.26.
Take “AGGUUUGCUAAAAGUCGCAAG [Fam3.1 aminoacylation ribozyme variant]”: the self-aminoacylation in the series on biotinyl-Phe-oxazolone was 10.5; with biotinyl-Met-oxazolone, 2.13; in the series on biotinyl-Trp-oxazolone it was 4.38.
For the sequence “AGUACCCUGGUCAUCGUGUGA [Fam2.1 aminoacylation ribozyme variant]”, the self-aminoacylation in the series on biotinyl-Phe-oxazolone was found to be 16.3; in the series on biotinyl-Met-oxazolone, 3.07; with biotinyl-Val-oxazolone, 2.06; in the series on biotinyl-Leu-oxazolone, 3.43; in the series on biotinyl-Trp-oxazolone, 3.88.
For the sequence “AUACACCUAGGUCAUCGGCUG [Fam2.2 aminoacylation ribozyme variant]”, the self-aminoacylation in the series with biotinyl-Phe-oxazolone amounted to 4; with biotinyl-Met-oxazolone, 2.13; in the series on biotinyl-Leu-oxazolone, 2.03.
Consider “AUUACACUGGUCAUAGAGUGA [Fam2.1 aminoacylation ribozyme variant]”, for which the self-aminoacylation with biotinyl-Phe-oxazolone came to 8.72; in the series with biotinyl-Met-oxazolone, 3.15; in the series with biotinyl-Val-oxazolone, 2.13; in the series with biotinyl-Leu-oxazolone, 3.62; with biotinyl-Trp-oxazolone, 3.92.
Consider “AUUACCAUGCUCAUCGAGUGA [Fam2.1 aminoacylation ribozyme variant]”, for which the self-aminoacylation in the series with biotinyl-Phe-oxazolone amounted to 2.98; with biotinyl-Met-oxazolone, 2.63; with biotinyl-Leu-oxazolone, 2.12; in the series on biotinyl-Trp-oxazolone it was 2.15.
“AUUACCCUGAUCAGCGAGUGA [Fam2.1 aminoacylation ribozyme variant]”: the self-aminoacylation was 3.1 in the series with biotinyl-Phe-oxazolone; 2.71 in the series on biotinyl-Met-oxazolone; 2.3 in the series with biotinyl-Val-oxazolone; 2.74 in the series on biotinyl-Leu-oxazolone; 4.93 with biotinyl-Trp-oxazolone.
Regarding “AUUACCCUGGACAUCAAGUGA [Fam2.1 aminoacylation ribozyme variant]”, the self-aminoacylation stood at 5.55 with biotinyl-Phe-oxazolone, 2.33 in the series with biotinyl-Met-oxazolone, 2.29 in the series with biotinyl-Leu-oxazolone and 2.98 in the series with biotinyl-Trp-oxazolone.
As for “AUUACCCUGGCCUUCGAGUGA [Fam2.1 aminoacylation ribozyme variant]”, the self-aminoacylation in the series on biotinyl-Phe-oxazolone turned out to be 17.9; with biotinyl-Met-oxazolone, 3.21; with biotinyl-Val-oxazolone, 2.53; in the series on biotinyl-Leu-oxazolone it was 4.36; with biotinyl-Trp-oxazolone, 5.17.
As for “AUUACCCUGGUCAACGAGUGU [Fam2.1 aminoacylation ribozyme variant]”, the self-aminoacylation in the series with biotinyl-Phe-oxazolone came to 6.18; in the series with biotinyl-Met-oxazolone, 2.91; with biotinyl-Leu-oxazolone, 3; with biotinyl-Trp-oxazolone, 3.43.
Consider “AUUACCCUGGUCACCGAGUAA [Fam2.1 aminoacylation ribozyme variant]”, for which the self-aminoacylation in the series on biotinyl-Phe-oxazolone amounted to 10.1; in the series with biotinyl-Met-oxazolone it was 2.62; in the series with biotinyl-Val-oxazolone, 2.34; in the series on biotinyl-Leu-oxazolone, 2.46.
For “AUUACCCUGGUCAGCGAGCGA [Fam2.1 aminoacylation ribozyme variant]”, the values for the self-aminoacylation with biotinyl-Met-oxazolone, with biotinyl-Val-oxazolone and in the series with biotinyl-Leu-oxazolone were 2.34, 2.08 and 2.33, respectively.
As for “AUUACCCUGGUCCUCGAGGGA [Fam2.1 aminoacylation ribozyme variant]”, the results for the self-aminoacylation with biotinyl-Val-oxazolone and with biotinyl-Trp-oxazolone were 2.15 and 2.37, respectively.
For the sequence “AUUACCCUUGUCAUCGUGUGA [Fam2.1 aminoacylation ribozyme variant]”, the self-aminoacylation is 5.78 in the series on biotinyl-Phe-oxazolone, 2.59 in the series with biotinyl-Met-oxazolone, 2.69 with biotinyl-Leu-oxazolone and 2.88 in the series on biotinyl-Trp-oxazolone.
On the same counts, the results for “AUUACCUUCGUCAUCGAGUGA [Fam2.1 aminoacylation ribozyme variant]” are 2.48, 2.22, 2.18 and 2.15.
Consider “AUUACCUUGGUCCUCGAGUGA [Fam2.1 aminoacylation ribozyme variant]”, for which the self-aminoacylation in the series on biotinyl-Phe-oxazolone is 17.8; in the series with biotinyl-Met-oxazolone, 3.05; in the series on biotinyl-Val-oxazolone, 2.11; in the series on biotinyl-Leu-oxazolone, 3.95; with biotinyl-Trp-oxazolone, 4.39.
For “AUUAUCCUCGUCAUCGAGUGA [Fam2.1 aminoacylation ribozyme variant]”, the self-aminoacylation with biotinyl-Phe-oxazolone came out at 5.23; in the series with biotinyl-Met-oxazolone it was 2.95; in the series with biotinyl-Leu-oxazolone, 2.75; in the series with biotinyl-Trp-oxazolone, 3.
As to “AUUCACCUACGUCAUCUGGUG [Fam2.2 aminoacylation ribozyme variant]”, the self-aminoacylation was 6.74 in the series with biotinyl-Phe-oxazolone, 2.09 in the series with biotinyl-Met-oxazolone and 2.24 in the series on biotinyl-Leu-oxazolone.
In the case of “AUUCACCUAGGUCAUCGCGAG [Fam2.2 aminoacylation ribozyme variant]”, the self-aminoacylation with biotinyl-Phe-oxazolone amounted to 4.46; in the series on biotinyl-Val-oxazolone, 2.31.
Turning to “AUUCACCUAGUUCAUAGGGUG [Fam2.2 aminoacylation ribozyme variant]”, the self-aminoacylation with biotinyl-Phe-oxazolone came out at 15.4; in the series on biotinyl-Met-oxazolone, 3.63; in the series with biotinyl-Leu-oxazolone, 3.8; in the series with biotinyl-Trp-oxazolone, 3.14.
“AUUCACCUCGGUCAUCGGGUC [Fam2.2 aminoacylation ribozyme variant]”: the self-aminoacylation with biotinyl-Phe-oxazolone was 9.78; in the series on biotinyl-Val-oxazolone, 2.01; in the series with biotinyl-Leu-oxazolone, 2.04.
For the sequence “AUUCACCUUGGUCAUCGGGGG [Fam2.2 aminoacylation ribozyme variant]”, the self-aminoacylation in the series on biotinyl-Phe-oxazolone was 13; in the series with biotinyl-Met-oxazolone it was 2.04; with biotinyl-Val-oxazolone, 2.04; in the series with biotinyl-Leu-oxazolone it was 2.84; in the series with biotinyl-Trp-oxazolone, 2.28.
For the sequence “AUUCACGUAGGUCAUCGAGUG [Fam2.2 aminoacylation ribozyme variant]”, the self-aminoacylation is 2.42 in the series with biotinyl-Phe-oxazolone, 2.92 with biotinyl-Met-oxazolone, 2.67 in the series with biotinyl-Leu-oxazolone and 2.73 with biotinyl-Trp-oxazolone.
As to “AUUCACGUAGGUCAUCGGGAG [Fam2.2 aminoacylation ribozyme variant]”, the self-aminoacylation with biotinyl-Met-oxazolone was found to be 2.07; in the series on biotinyl-Val-oxazolone it was 2.13.
With “AUUCGCCUAGGUCAUAGGGUG [Fam2.2 aminoacylation ribozyme variant]”, the self-aminoacylation in the series on biotinyl-Phe-oxazolone turned out to be 7.92; with biotinyl-Met-oxazolone it was 2.16; with biotinyl-Leu-oxazolone, 2.47.
On to “AUUGACCUAGCUCAUCGGGUG [Fam2.2 aminoacylation ribozyme variant]”, for which the figures for the self-aminoacylation with biotinyl-Phe-oxazolone, with biotinyl-Met-oxazolone and in the series on biotinyl-Trp-oxazolone were 11, 2.14 and 2.71, respectively.
With “AUUGCCCUGGUCAUCGUGUGA [Fam2.1 aminoacylation ribozyme variant]”, the self-aminoacylation in the series on biotinyl-Phe-oxazolone stood at 24; with biotinyl-Met-oxazolone, 2.93; in the series with biotinyl-Leu-oxazolone, 3.19; in the series with biotinyl-Trp-oxazolone, 3.2.
Turning to “AUUUCCCUGGUCAUCGAGCGA [Fam2.1 aminoacylation ribozyme variant]”, the values for the self-aminoacylation in the series on biotinyl-Met-oxazolone, with biotinyl-Leu-oxazolone and in the series on biotinyl-Trp-oxazolone were 2.25, 2.18 and 2.59, respectively.
In the case of “CCACACCUCAAGCAAUCGGUA [Fam1B.1 aminoacylation ribozyme variant]”, the self-aminoacylation with biotinyl-Val-oxazolone came to 2.1.
As to “CCACACUUCAAGCAAUCGCUU [Fam1B.1 aminoacylation ribozyme variant]”, the self-aminoacylation worked out at 2.06 with biotinyl-Met-oxazolone and 2.09 in the series with biotinyl-Leu-oxazolone.
For “CCACACUUCAAGCAAUGGGUG [Fam1B.1 aminoacylation ribozyme variant]”, the self-aminoacylation in the series on biotinyl-Phe-oxazolone was found to be 10.7; in the series on biotinyl-Met-oxazolone, 2.61; in the series with biotinyl-Val-oxazolone, 2.24; in the series with biotinyl-Leu-oxazolone it was 3; in the series with biotinyl-Trp-oxazolone, 2.39.
Consider “CCACACUUCAAGCAGUCGGCC [Fam1B.1 aminoacylation ribozyme variant]”, for which the self-aminoacylation in the series on biotinyl-Phe-oxazolone worked out at 4.85; with biotinyl-Met-oxazolone, 2.22; with biotinyl-Val-oxazolone it was 2.84; with biotinyl-Leu-oxazolone, 2.47.
Consider “CCACACUUCAAGCAUUCGGUA [Fam1B.1 aminoacylation ribozyme variant]”, for which the self-aminoacylation in the series on biotinyl-Val-oxazolone worked out at 2.44.
For “CCACACUUCAGGCGAUCGGUC [Fam1B.1 aminoacylation ribozyme variant]”, the self-aminoacylation with biotinyl-Phe-oxazolone was 4.75; in the series on biotinyl-Met-oxazolone, 2.1; in the series on biotinyl-Val-oxazolone it was 2.42.
In the case of “CCACACUUCUAGCAAUCGGCC [Fam1B.1 aminoacylation ribozyme variant]”, the self-aminoacylation with biotinyl-Met-oxazolone is 2.54; with biotinyl-Val-oxazolone, 2.2; in the series on biotinyl-Leu-oxazolone it was 2.06; in the series with biotinyl-Trp-oxazolone, 2.72.
Take “CCAUACUUCAAGCAAUCGGCC [Fam1B.1 aminoacylation ribozyme variant]”: the self-aminoacylation in the series on biotinyl-Phe-oxazolone stood at 2.88; with biotinyl-Met-oxazolone, 2.36; with biotinyl-Leu-oxazolone, 2.33; in the series with biotinyl-Trp-oxazolone, 3.74.
“CCCCACGUCAAGCAAUCGGUC [Fam1B.1 aminoacylation ribozyme variant]”: the self-aminoacylation in the series with biotinyl-Phe-oxazolone is 5.6; in the series with biotinyl-Val-oxazolone, 2.4; in the series with biotinyl-Trp-oxazolone it was 2.49.
The like results for “CCCCACUGCAAGCAAUCGGUC [Fam1B.1 aminoacylation ribozyme variant]” were, in that order, 4.31, 2.35 and 3.43.
“CUACCUCAAACAAUCGGGCUG [Fam1A.1 aminoacylation ribozyme variant]”: the figures for the self-aminoacylation in the series with biotinyl-Phe-oxazolone, with biotinyl-Met-oxazolone and with biotinyl-Leu-oxazolone were 2.01, 2.02 and 2.4, respectively.
On to “GAGCUUGCUAAUAGUCGCAAG [Fam3.1 aminoacylation ribozyme variant]”, for which the self-aminoacylation was found to be 4.81 in the series on biotinyl-Phe-oxazolone, 2.03 with biotinyl-Met-oxazolone, 2.02 in the series on biotinyl-Val-oxazolone and 2.4 in the series with biotinyl-Trp-oxazolone.
As to “GAGUUUGCUAAAAGUCGCAAG [Fam3.1 aminoacylation ribozyme variant]”, the self-aminoacylation was 8.71 in the series with biotinyl-Phe-oxazolone, 2.1 in the series on biotinyl-Val-oxazolone and 5.66 in the series on biotinyl-Trp-oxazolone.

These data come from the supplement of paper PMC9233669.
